# Target: T1, IL-1β (UniProt P01584 117-269)
# T1 construct: Antigen immobilised on the Biacore chip
# Experiment: Biacore, periplasmic extract
Binder,fold difference in affinity vs original,binding result
"XPA23 light chain T52V (Fab, V domains shown) VH: EVQLLESGGGLVQPGGSLRLSCAASGFTFSKYFMFWVRQAPGKGLEWVSVISPSGGMTRYADSVKGRFTISRDNSKNTLYLQMNSLRAEDTAVYYCARVGYGGNSDYWGQGTLVTVSS VL: DIQMTQSPSSVSASVGDRLTIICRASQDINRWLAWYQQTPGNAPKLLIHSAVSLQSGVPSRFSGSGSGTDFTLTINSLQPEDFATYYCQQADSFPLTFGGGTKVEIK",0.82 fold,
"XPA23 light chain W32D (Fab, V domains shown) VH: EVQLLESGGGLVQPGGSLRLSCAASGFTFSKYFMFWVRQAPGKGLEWVSVISPSGGMTRYADSVKGRFTISRDNSKNTLYLQMNSLRAEDTAVYYCARVGYGGNSDYWGQGTLVTVSS VL: DIQMTQSPSSVSASVGDRLTIICRASQDINRDLAWYQQTPGNAPKLLIHSATSLQSGVPSRFSGSGSGTDFTLTINSLQPEDFATYYCQQADSFPLTFGGGTKVEIK",,no binding
"XPA23 light chain W32I (Fab, V domains shown) VH: EVQLLESGGGLVQPGGSLRLSCAASGFTFSKYFMFWVRQAPGKGLEWVSVISPSGGMTRYADSVKGRFTISRDNSKNTLYLQMNSLRAEDTAVYYCARVGYGGNSDYWGQGTLVTVSS VL: DIQMTQSPSSVSASVGDRLTIICRASQDINRILAWYQQTPGNAPKLLIHSATSLQSGVPSRFSGSGSGTDFTLTINSLQPEDFATYYCQQADSFPLTFGGGTKVEIK",,no binding
"XPA23 light chain T52W (Fab, V domains shown) VH: EVQLLESGGGLVQPGGSLRLSCAASGFTFSKYFMFWVRQAPGKGLEWVSVISPSGGMTRYADSVKGRFTISRDNSKNTLYLQMNSLRAEDTAVYYCARVGYGGNSDYWGQGTLVTVSS VL: DIQMTQSPSSVSASVGDRLTIICRASQDINRWLAWYQQTPGNAPKLLIHSAWSLQSGVPSRFSGSGSGTDFTLTINSLQPEDFATYYCQQADSFPLTFGGGTKVEIK",0.87 fold,
"XPA23 light chain W32G (Fab, V domains shown) VH: EVQLLESGGGLVQPGGSLRLSCAASGFTFSKYFMFWVRQAPGKGLEWVSVISPSGGMTRYADSVKGRFTISRDNSKNTLYLQMNSLRAEDTAVYYCARVGYGGNSDYWGQGTLVTVSS VL: DIQMTQSPSSVSASVGDRLTIICRASQDINRGLAWYQQTPGNAPKLLIHSATSLQSGVPSRFSGSGSGTDFTLTINSLQPEDFATYYCQQADSFPLTFGGGTKVEIK",,no binding
"XPA23 light chain W32F (Fab, V domains shown) VH: EVQLLESGGGLVQPGGSLRLSCAASGFTFSKYFMFWVRQAPGKGLEWVSVISPSGGMTRYADSVKGRFTISRDNSKNTLYLQMNSLRAEDTAVYYCARVGYGGNSDYWGQGTLVTVSS VL: DIQMTQSPSSVSASVGDRLTIICRASQDINRFLAWYQQTPGNAPKLLIHSATSLQSGVPSRFSGSGSGTDFTLTINSLQPEDFATYYCQQADSFPLTFGGGTKVEIK",,no binding
"XPA23 light chain W32H (Fab, V domains shown) VH: EVQLLESGGGLVQPGGSLRLSCAASGFTFSKYFMFWVRQAPGKGLEWVSVISPSGGMTRYADSVKGRFTISRDNSKNTLYLQMNSLRAEDTAVYYCARVGYGGNSDYWGQGTLVTVSS VL: DIQMTQSPSSVSASVGDRLTIICRASQDINRHLAWYQQTPGNAPKLLIHSATSLQSGVPSRFSGSGSGTDFTLTINSLQPEDFATYYCQQADSFPLTFGGGTKVEIK",,no binding
"XPA23 light chain W32P (Fab, V domains shown) VH: EVQLLESGGGLVQPGGSLRLSCAASGFTFSKYFMFWVRQAPGKGLEWVSVISPSGGMTRYADSVKGRFTISRDNSKNTLYLQMNSLRAEDTAVYYCARVGYGGNSDYWGQGTLVTVSS VL: DIQMTQSPSSVSASVGDRLTIICRASQDINRPLAWYQQTPGNAPKLLIHSATSLQSGVPSRFSGSGSGTDFTLTINSLQPEDFATYYCQQADSFPLTFGGGTKVEIK",,no binding
"XPA23 light chain T52Y (Fab, V domains shown) VH: EVQLLESGGGLVQPGGSLRLSCAASGFTFSKYFMFWVRQAPGKGLEWVSVISPSGGMTRYADSVKGRFTISRDNSKNTLYLQMNSLRAEDTAVYYCARVGYGGNSDYWGQGTLVTVSS VL: DIQMTQSPSSVSASVGDRLTIICRASQDINRWLAWYQQTPGNAPKLLIHSAYSLQSGVPSRFSGSGSGTDFTLTINSLQPEDFATYYCQQADSFPLTFGGGTKVEIK",1.01 fold,

# Further lines, results first:
fold difference in affinity vs original,binding result,Binder
,no binding,"XPA23 light chain W32N (Fab, V domains shown) VH: EVQLLESGGGLVQPGGSLRLSCAASGFTFSKYFMFWVRQAPGKGLEWVSVISPSGGMTRYADSVKGRFTISRDNSKNTLYLQMNSLRAEDTAVYYCARVGYGGNSDYWGQGTLVTVSS VL: DIQMTQSPSSVSASVGDRLTIICRASQDINRNLAWYQQTPGNAPKLLIHSATSLQSGVPSRFSGSGSGTDFTLTINSLQPEDFATYYCQQADSFPLTFGGGTKVEIK"
,no binding,"XPA23 light chain W32A (Fab, V domains shown) VH: EVQLLESGGGLVQPGGSLRLSCAASGFTFSKYFMFWVRQAPGKGLEWVSVISPSGGMTRYADSVKGRFTISRDNSKNTLYLQMNSLRAEDTAVYYCARVGYGGNSDYWGQGTLVTVSS VL: DIQMTQSPSSVSASVGDRLTIICRASQDINRALAWYQQTPGNAPKLLIHSATSLQSGVPSRFSGSGSGTDFTLTINSLQPEDFATYYCQQADSFPLTFGGGTKVEIK"
,no binding,"XPA23 light chain W32L (Fab, V domains shown) VH: EVQLLESGGGLVQPGGSLRLSCAASGFTFSKYFMFWVRQAPGKGLEWVSVISPSGGMTRYADSVKGRFTISRDNSKNTLYLQMNSLRAEDTAVYYCARVGYGGNSDYWGQGTLVTVSS VL: DIQMTQSPSSVSASVGDRLTIICRASQDINRLLAWYQQTPGNAPKLLIHSATSLQSGVPSRFSGSGSGTDFTLTINSLQPEDFATYYCQQADSFPLTFGGGTKVEIK"
,no binding,"XPA23 light chain W32Q (Fab, V domains shown) VH: EVQLLESGGGLVQPGGSLRLSCAASGFTFSKYFMFWVRQAPGKGLEWVSVISPSGGMTRYADSVKGRFTISRDNSKNTLYLQMNSLRAEDTAVYYCARVGYGGNSDYWGQGTLVTVSS VL: DIQMTQSPSSVSASVGDRLTIICRASQDINRQLAWYQQTPGNAPKLLIHSATSLQSGVPSRFSGSGSGTDFTLTINSLQPEDFATYYCQQADSFPLTFGGGTKVEIK"
,no binding,"XPA23 light chain W32E (Fab, V domains shown) VH: EVQLLESGGGLVQPGGSLRLSCAASGFTFSKYFMFWVRQAPGKGLEWVSVISPSGGMTRYADSVKGRFTISRDNSKNTLYLQMNSLRAEDTAVYYCARVGYGGNSDYWGQGTLVTVSS VL: DIQMTQSPSSVSASVGDRLTIICRASQDINRELAWYQQTPGNAPKLLIHSATSLQSGVPSRFSGSGSGTDFTLTINSLQPEDFATYYCQQADSFPLTFGGGTKVEIK"
,no binding,"XPA23 light chain W32K (Fab, V domains shown) VH: EVQLLESGGGLVQPGGSLRLSCAASGFTFSKYFMFWVRQAPGKGLEWVSVISPSGGMTRYADSVKGRFTISRDNSKNTLYLQMNSLRAEDTAVYYCARVGYGGNSDYWGQGTLVTVSS VL: DIQMTQSPSSVSASVGDRLTIICRASQDINRKLAWYQQTPGNAPKLLIHSATSLQSGVPSRFSGSGSGTDFTLTINSLQPEDFATYYCQQADSFPLTFGGGTKVEIK"

# Reference: patent US20110118131A1 (published 2011)
